Reference: US20220177583A1 (University of California, published 2022)

T1: human CLDN6, endogenously expressed on cancer cell lines (human, UniProt P56747 1-220)
T1 construct: also called Endogenous CLDN6+; CLDN6 on ARK2, OVCA429, UMUC4 cells
T1 sequence: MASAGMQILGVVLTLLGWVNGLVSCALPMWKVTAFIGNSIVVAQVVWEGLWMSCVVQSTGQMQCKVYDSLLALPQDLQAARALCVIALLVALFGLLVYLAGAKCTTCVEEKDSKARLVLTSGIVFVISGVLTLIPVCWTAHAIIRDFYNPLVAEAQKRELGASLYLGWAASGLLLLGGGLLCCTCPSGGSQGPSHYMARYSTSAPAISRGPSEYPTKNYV

T2: mouse CLDN6 fused to GFP, expressed on engineered HEK293T cells (mouse, UniProt Q9Z262 1-219)
T2 construct: whole, on cells; also called HEK293T-CLDN6-mGFP Artificial CLDN6+ (mouse); murine CLDN6; not shown: GFP tag
T2 sequence (looked up): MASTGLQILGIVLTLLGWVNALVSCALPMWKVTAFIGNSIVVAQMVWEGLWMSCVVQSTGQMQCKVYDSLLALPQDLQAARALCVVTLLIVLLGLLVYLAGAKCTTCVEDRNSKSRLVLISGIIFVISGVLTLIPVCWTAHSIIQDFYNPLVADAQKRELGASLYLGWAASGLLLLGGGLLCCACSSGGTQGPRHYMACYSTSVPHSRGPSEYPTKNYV


Key:
[1] = biological target: T1, human CLDN6, endogenously expressed on …; experiment: FACS, ARK2 cells, 0.3 ug Ab
[2] = biological target: T1, human CLDN6, endogenously expressed on …; experiment: FACS, ARK2 cells, 1.5 ug Ab
[3] = biological target: T1, human CLDN6, endogenously expressed on …; experiment: FACS, OVCA429 cells, 1.5 ug Ab
[4] = biological target: T2, mouse CLDN6 fused to GFP, expressed on …; experiment: FACS, 293T clone with mouse CLDN6

Row | Binder | FACS signal [1] | FACS signal [2] | FACS signal [3] | FACS signal [4]
1 | AB1-Chim (antibody, V domains shown, Parental antibody prior to humanization ('chim'); also called pre-humanized form of AB1) VH: QVQLQQSAAELARPGASVKMSCKASGYTFTTYTMHWVKQRPGQGLEWIGFINPSSGYTDYNQKFKDRTTLTADKSSSTVYMQLSSLTSEDSAVYYCANGDYYVAYWGQGTLVTVSA VL: QIVLTQSPAIMSASLGERVTMTCTASSSVSSTYFHWYQQKPGSSPKLWIYSTSNLASGVPRRFSGSASGTSYSLTISSMEAEDAATYYCHQYHRSPLTFGAGTKLELK | 58800 | 51900 | 177000 | 514000
2 | AB1-7 (antibody, V domains shown, Humanized; also called humanized AB 1-7) VH: QVQLVQSGAEVKKPGASVKMSCKASGYTFTTYTMHWVRQAPGQGLEWIGFINPSSGYTDYAQKFQGRVTLTADTSTSTVYMELSSLRSEDTAVYYCANGDYYVAYWGQGTLVTVSS VL: DIQLTQSPSSLSASVGDRVTMTCTASSSVSSTYFHWYQQKPGKAPKLLIYSTSNLASGVPSRFSGSGSGTDYTLTISSMQPEDAATYYCHQYHRSPLTFGQGTKLEIK | 4440 | 11200 | 44700 | 99700
3 | AB1-6 (antibody, V domains shown, Humanized; also called humanized AB 1-6) VH: QVQLVQSGAEVKKPGASVKMSCKASGYTFTTYTMHWVRQAPGQGLEWIGFINPSSGYTDYAQKFQGRVTLTADTSTSTVYMELSSLRSEDTAVYYCANGDYYVAYWGQGTLVTVSS VL: DIQMTQSPSSLSASVGDRVTITCTASSSVSSTYFHWYQQKPGKAPKLLIYSTSNLASGVPSRFSGSGSGTDYTLTISSLQPEDFATYYCHQYHRSPLTFGQGTKLEIK | 2820 | 7740 | 29900 | 77600
4 | AB1-5 (antibody, V domains shown, Humanized; also called humanized AB 1-5) VH: QVQLVQSGAEVKKPGASVKVSCKASGYTFTTYTMHWVRQAPGQGLEWMGFINPSSGYTDYAQKFQGRVTMTADTSTSTVYMELSSLRSEDTAVYYCANGDYYVAYWGQGTLVTVSS VL: DIQLTQSPSSLSASVGDRVTMTCTASSSVSSTYFHWYQQKPGKAPKLWIYSTSNLASGVPSRFSGSGSGTDYTLTISSMQPEDAATYYCHQYHRSPLTFGQGTKLEIK | 7490 | 22400 | 54300 | 128000
5 | AB1-4 (antibody, V domains shown, Humanized; also called humanized AB 1-4) VH: QVQLVQSGAEVKKPGASVKVSCKASGYTFTTYTMHWVRQAPGQGLEWMGFINPSSGYTDYAQKFQGRVTMTADTSTSTVYMELSSLRSEDTAVYYCANGDYYVAYWGQGTLVTVSS VL: DIQLTQSPSSLSASVGDRVTMTCTASSSVSSTYFHWYQQKPGKAPKLLIYSTSNLASGVPSRFSGSGSGTDYTLTISSMQPEDAATYYCHQYHRSPLTFGQGTKLEIK | 3640 | 10000 | 34600 | 75900
6 | AB1-8 (antibody, V domains shown, Humanized; also called humanized AB 1-8) VH: QVQLVQSGAEVKKPGASVKMSCKASGYTFTTYTMHWVRQAPGQGLEWIGFINPSSGYTDYAQKFQGRVTLTADTSTSTVYMELSSLRSEDTAVYYCANGDYYVAYWGQGTLVTVSS VL: DIQLTQSPSSLSASVGDRVTMTCTASSSVSSTYFHWYQQKPGKAPKLWIYSTSNLASGVPSRFSGSGSGTDYTLTISSMQPEDAATYYCHQYHRSPLTFGQGTKLEIK | 5810 | 17600 | 66000 | 122000
7 | AB1-3 (antibody, V domains shown, Humanized; also called humanized AB 1-3) VH: QVQLVQSGAEVKKPGASVKVSCKASGYTFTTYTMHWVRQAPGQGLEWMGFINPSSGYTDYAQKFQGRVTMTADTSTSTVYMELSSLRSEDTAVYYCANGDYYVAYWGQGTLVTVSS VL: DIQMTQSPSSLSASVGDRVTITCTASSSVSSTYFHWYQQKPGKAPKLLIYSTSNLASGVPSRFSGSGSGTDYTLTISSLQPEDFATYYCHQYHRSPLTFGQGTKLEIK | 2830 | 10800 | 27500 | 89300
